Type in all cases: biochemical
The subject of data set [1] is β-galactoside-α2,3-sialyltransferase from Photobacterium phosphoreum JT-ISH-467. In words: Determination of binding mode of sialic acid using pyridylaminated sugar chain, HPLC. The note with it: acceptor 2.0 μM, CMP-NeuAc 5.7 μM, enzyme 20 mU/ml, pH 6.0, 25° C., 3 hours. On the procedure: (§1) Using the enzyme obtained in Example 2, the enzymatic reaction was carried out using a pyridylaminated sugar chain as a glycosyl acceptor substrate. The pyridylaminated sugar chain used for analysis was pyridylaminated lactose (Galβ1-4Glc-PA, Takara Bio Inc., Japan). The glycosyl acceptor substrate, CMP-NeuAc and the enzyme were dissolved at 2.0 μM, 5.7 μM and 20 mU/ml, respectively, in 25 μl of 20 mM cacodylate buffer (pH 6.0), and then reacted at 25° C. for 3 hours. After the reaction, the reaction solution was treated at 100° C. for 2 minutes to inactivate the enzyme, followed by HPLC to analyze the reaction product.
The HPLC system used was Shimadzu LC10A (Shimadzu Corporation, Japan) and the analytical column used was Takara PALPAK Type R (Takara Bio Inc., Japan). The column which had been equilibrated with 100 mM acetate-triethylamine (pH 5.0) containing 0.15% N-butanol was injected with the reaction solution diluted with Eluent A (100 mM acetate-triethylamine, pH 5.0). […] The analysis was performed under the following conditions: flow rate: 1 ml/min, column temperature: 40° C., detection: fluorescence (Ex: 320 nm, Em: 400 nm).

Data set [2] can be described thus: Sialyltransferase activity in E. coli homogenate (crude enzyme solution), transfer of 14C-NeuAc from CMP-NeuAc to lactose. The note with it: lactose acceptor; for Radioactivity (cpm) Average: average of duplicate; for Sialyltransferase activity in crude enzyme solution (in words): CMP-14C-NeuAc donor. On the procedure: Sialyltransferase activity was measured as described in J. Biochem., 120, pp. 104-110 (1996) (which is hereby incorporated by reference in its entirety). More specifically, the enzymatic reaction was accomplished by using CMP-NeuAc (70 nmol, containing 25000 cpm CMP-NeuAc in which NeuAc was labeled with ^14C, 356 cpm/nmol; NeuAc represents N-acetylneuraminic acid) as a glycosyl donor substrate, lactose (1.25 μmol) as a glycosyl acceptor substrate, NaCl added to give a concentration of 0.5 M, and the enzyme-containing reaction solution (30 μl) prepared as described above. The enzymatic reaction was carried out at 25° C. for 10 to 30 minutes. After completion of the reaction, 1.97 ml of 5 mM phosphate buffer (pH 6.8) was added to the reaction solution, which was then applied to a Dowex 1×8 (PO4^3− form, 0.2×2 cm, BIO-RAD) column. The radioactivity was measured for the reaction product, i.e., sialyllactose contained in the eluate (0 to 2 ml) from this column to calculate the enzyme activity.
An induction experiment of protein expression was performed on the two 467-N0C0 clones and the three 467-N2C0 clones obtained in (4) above. A single colony of E. coli TB1 having the expression vector pTrc99A carrying each clone was inoculated into LB medium (5 ml) containing an antibiotic, ampicillin (final concentration 100 μg/mL), and pre-cultured at 30° C. to about A600=0.5, followed by addition of IPTG (isopropyl-β-D(−)-thiogalactopyranoside, Wako Pure Chemical Industries, Ltd. Japan) at a final concentration of 1 mM. After culturing with shaking at 30° C. for an additional 4 hours, the cells in 2 ml culture solution were collected by centrifugation. These cells were suspended in 200 μl of 20 mM BisTris buffer (pH 7.0) containing 0.336% Triton X-100 and 0.5 M sodium chloride, and ultrasonically homogenized under ice cooling. The resulting homogenate was defined as a crude enzyme solution and provided for activity measurement. The reaction was carried out in duplicate, and the reaction composition was the same as shown in Example 1, except that the reaction time was set to 15 hours.
In the same manner as shown in Example 5(5), an induction experiment of protein expression was performed on 2 clones, i.e., the first clone of ISH224-N0C0 and the first clone of ISH224-N1C0 to measure their enzyme activity.
In the same manner as shown in Example 5(5), an induction experiment of protein expression was performed on 3 clones, i.e., the first clone of FAJ-N0C0 as well as the first and second clones of FAJ-N1C0 to measure their enzyme activity.

Data set [3] is described as follows: Confirmation of α2,3 sialyltransferase activity of E. coli-expressed enzyme with pyridylaminated lactose, HPLC. The note with it: pyridylaminated lactose 2.0 μM, CMP-sialic acid 5.7 μM, pH 6.0, 25° C., 6 hours. The protocol: as §1
The HPLC system used was Shimadzu LC10A (Shimadzu Corporation, Japan) and the analytical column used was Takara PALPAK Type R (Takara Bio Inc., Japan). The column which had been equilibrated with 100 mM acetate-triethylamine (pH 5.0) containing 0.15% N-butanol was injected with the reaction solution diluted with Eluent A (100 mM acetate-triethylamine, pH 5.0). For elution of the pyridylaminated sugar chain, Eluent A (100 mM acetate-triethylamine, pH 5.0) and Eluent B (100 mM acetate-triethylamine containing 0.5% n-butanol, pH 5.0) were used to successively elute the pyridylaminated sugar chain with a linear gradient of 30% to 100% Eluent B (0 to 35 minutes) and then 100% Eluent B (35 to 50 minutes). The analysis was performed under the following conditions: flow rate: 1 ml/min, column temperature: 40° C., detection: fluorescence (Ex: 320 nm, Em: 400 nm).
As in the case of Example 3, pyridylaminated lactose (Galβ1-4Glc-PA, PA-Sugar Chain 026, Takara Bio Inc., Japan) was used as a glycosyl acceptor to carry out the enzymatic reaction. After the reaction, the reaction solution was heated at 95° C. for 5 minutes to inactivate the enzyme, followed by HPLC analysis. It should be noted that the enzymatic reaction was accomplished at 25° C. for 6 hours using pyridylaminated lactose and CMP-sialic acid dissolved at 2.0 μM and 5.7 μM, respectively, in 25 μl of 20 mM cacodylate buffer (pH 6.0) (Reaction 1). On the other hand, a control experiment (Reaction 2) was carried out using a reaction solution free from CMP-sialic acid. Further, to clarify the retention time of standards, the crude enzyme solution was inactivated by thermal treatment (95° C., 5 minutes) and tested in the presence of pyridylaminated lactose and pyridylaminated α2,3-sialyllactose (pyridylaminated 3′-sialyllactose) (Neu5Acα2-3Galβ1-4Glc-PA, PA-Sugar Chain 029, Takara Bio Inc., Japan).

[4] abbreviates: JT-ISH-467 gene clones, 25° C., reaction time 15 hours.
The mark [5] stands for this setting: JT-FAJ-16 gene clones, as Example 5(5).

Numbering of substitutions follows the chain as printed.

In the case of `OC[C@@H](O)[C@@H](O[C@@H]1O[C@H](CO)[C@H](O)[C@H](O)[C@H]1O)[C@H](O)[C@@H](O)CNc1ccccn1` [PA-Sugar Chain 026, pyridylaminated lactose], in data set [1], the “Reaction product from pyridylaminated sugar chain (binding mode of sialic acid)” value was “pyridylaminated α2,3-sialyllactose (pyridylaminated 3′-sialyllactose) was synthesized”.

B1: ISH467-N0C0 first clone: E. coli-expressed full-length JT-ISH-467 sialyltransferase with Asn to Ser change at position 190 of SEQ ID NO: 2 (protein, listed as Photobacterium phosphoreum)
chain: MFVFCKKIFFLIFISLMILGGCNSDSKHNNSDGNITKNKTIEVYVDRATLPTIQQMTQIINENSNNKKLISWSRYPINDETLLESINGSFFKNRPELIKSLDSMILTNEIKKVIINGNTLWAVDVVNIIKSIEALGKKTEIELNFYDDGSAEYVRLYDFSRLPESEQEYKISLSKDNIQSSINGTQPFDSSIENIYGFSQLYPTTYHMLRADIFETNLPLTSLKRVISNNIKQMKWDYFTTFNSQQKNKFYNFTGFNPEKIKEQYKASPHENFIFIGTNSGTATAEQQIDILTEAKKPDSPIITNSIQGLDLFFKGHPSATYNQQIIDAHNMIEIYNKIPFEALIMTDALPDAVGGMGSSVFFSLPNTVENKFIFYKSDTDIENNALIQVMIELNIVNRNDVKLISDLQ
As for B1, in data set [2] (setting [4]), the “Radioactivity (cpm) Round 1” value is listed as 8496 cpm, the “Radioactivity (cpm) Round 2” value turned out to be 7486 cpm and the “Radioactivity (cpm) Average” value is 7991 cpm. In addition, the “Sialyltransferase activity in crude enzyme solution (in words)” value (from here on “Sialyltransferase activity … (in words)”) in data set [2] is recorded as “sialyltransferase activity in both crude enzyme solutions”. In addition, the “α2,3 sialyltransferase activity (formation of pyridylaminated α2,3-sialyllactose)” value (from here on “α2,3 sialyltransferase activity”) in data set [3] was “found to have α2,3 sialyltransferase activity”.

B2: ISH467-N2C0 first clone: JT-ISH-467 sialyltransferase lacking signal peptide region, Phe replaced by Ser at position 159 (protein, listed as Photobacterium phosphoreum)
chain: B1 chain with F159S, S190N
modifications: lacks signal peptide; cited entry is nucleotide; CDS (1)..(1230) /gene=“467-23ST” /product=“Beta-galactoside- alpha 2,3-sialyltransferase”
For B2, in data set [2] (setting [4]), the “Radioactivity (cpm) Round 1” value worked out at 10514 cpm, the “Radioactivity (cpm) Round 2” value was 9033 cpm and the “Radioactivity (cpm) Average” value is recorded as 9773.5 cpm. For the same molecule, the “Sialyltransferase activity … (in words)” value in data set [2] was “sialyltransferase activity was also observed”. The “α2,3 sialyltransferase activity” value in data set [3] is “had α2,3 sialyltransferase activity”.

B3: ISH467-N0C0 second clone: E. coli-expressed full-length JT-ISH-467 sialyltransferase, nucleotide sequence of SEQ ID NO: 1, no change (protein, listed as Photobacterium phosphoreum)
chain: B1 chain with S190N
modifications: CDS (1)..(1230) /gene=“467-23ST” /product=“Beta-galactoside- alpha 2,3-sialyltransferase”
Turning to B3, in data set [2] (setting [4]), the “Radioactivity (cpm) Round 1” value is listed as 7097 cpm, the “Radioactivity (cpm) Round 2” value is reported as 7809 cpm and the “Radioactivity (cpm) Average” value stood at 7453 cpm. Also, the “Sialyltransferase activity … (in words)” value in data set [2] is “sialyltransferase activity in both crude enzyme solutions”. Besides, in data set [3], the “α2,3 sialyltransferase activity” value is reported as “found to have α2,3 sialyltransferase activity”.

B4: FAJ-N0C0 first clone: E. coli-expressed full-length JT-FAJ-16 sialyltransferase, nucleotides 1 to 1209 of SEQ ID NO: 30 (protein, listed as Vibrio sp.)
chain: MKNIITKRMLIILSSLFTIIGCNNDNSTTTNNNAIEIYVDRATLPTIQQMTKIVSQKTSNKKLISWSRYPITDKSLLKKINAEFFKEQFELTESLKNIILSENIDNLIIHGNTLWSIDVVDIIKEVNLLGKNIPIELHFYDDGSAEYVRIYEFSKLPESEQKYKTSLSKNNIKFSIDGTDSFKNTIENIYGFSQLYPTTYHMLRADIFDTTLKINPLRELLSNNIKQMKWDYFKDFNYKQKDIFYSLTNFNPKEIQEDFNKNSNKNFIFIGSNSATATAEEQINIISEAKKENSSIITNSISDYDLFFKGHPSATFNEQIINAHDMIEINNKIPFEALIMTGILPDAVGGMGSSVFFSIPKEVKNKFVFYKSGTDIENNSLIQVMLKLNLINRDNIKLISDI
modifications: CDS (1)..(1209) /gene=“FAJ16-23ST” /product=“Beta-galactoside- alpha 2,3-sialyltransferase”
As to B4, in data set [2] (setting [5]), the “Radioactivity (cpm) Round 1” value is on record as 11012 cpm, the “Radioactivity (cpm) Round 2” value amounted to 12056 cpm and the “Radioactivity (cpm) Average” value was found to be 11534 cpm. Further, the “Sialyltransferase activity … (in words)” value in data set [2] is recorded as “sialyltransferase activity was observed”. Besides, the “α2,3 sialyltransferase activity” value in data set [3] is reported as “a peak of pyridylaminated α2,3-sialyllactose (pyridylaminated 3′-sialyllactose) was detected”.
